In paper PMC5906670, “Structural basis of epilepsy-related ligand–receptor complex LGI1–ADAM22” (Nature Communications, 2018):

B1: ADAM22 ECD-FLAG [human] / LGI1-His6 [human] (parent)
chain 1: SKRQLRRYPRNVEEETKYIELMIVNDHLMFKKHRLSVVHTNTYAKSVVNMADLIYKDQLKTRIVLVAMETWATDNKFAISENPLITLREFMKYRRDFIKEKSDAVHLFSGSQFESSRSGAAYIGGICSLLKGGGVNEFGKTDLMAVTLAQSLAHNIGIISDKRKLASGECKCEDTWSGCIMGDTGYYLPKKFTQCNIEEYHDFLNSGGGACLFNKPSKLLDPPECGNGFIETGEECDCGTPAECVLEGAECCKKCTLTQDSQCSDGLCCKKCKFQPMGTVCREAVNDCDIRETCSGNSSQCAPNIHKMDGYSCDGVQGICFGGRCKTRDRQCKYIWGQKVTASDKYCYEKLNIEGTEKGNCGKDKDTWIQCNKRDVLCGYLLCTNIGNIPRLGELDGEITSTLVVQQGRTLNCSGGHVKLEEDVDLGYVEDGTPCGPQMMCLEHRCLPVASFNFSTCLSSKEGTICSGNGVCSNELKCVCNRHWIGSDCNTYFPHNDDAKTGITLSG
chain 2: KKPAKPKCPAVCTCTKDNALCENARSIPRTVPPDVISLSFVRSGFTEISEGSFLFTPSLQLLLFTSNSFDVISDDAFIGLPHLEYLFIENNNIKSISRHTFRGLKSLIHLSLANNNLQTLPKDIFKGLDSLTNVDLRGNSFNCDCKLKWLVEWLGHTNATVEDIYCEGPPEYKKRKINSLSSKDFDCIITEFAKSQDLPYQSLSIDTFSYLNDEYVVIAQPFTGKCIFLEWDHVEKTFRNYDNITGTSTVVCKPIVIETQLYVIVAQLFGGSHIYKRDSFANKFIKIQDIEILKIRKPNDIETFKIENNWYFVVADSSKAGFTTIYKWNGNGFYSHQSLHAWYRDTDVEYLEIVRTPQTLRTPHLILSSSSQRPVIYQWNKATQLFTNQTDIPNMEDVYAVKHFSVKGDVYICLTRFIGDSKVMKWGGSSFQDIQRMPSRGSMVFQPLQINNYQYAILGSDYSFTQVYNWDAEKAKFVKFQELNVQAPRSFTHVSINKRNFLFASSFKGNTQIYKHVIVDLSA

Variants of: B1
Assay: pull-down
Settings: with LGI1-His6 [human]; Ni-NTA agarose; proteins secreted from HEK293T cells; n = 5 independent experiments; read off a plot

Row | Variant | percent of parent
1 | chain 1 SKRQLRRYPRNVEEETKYIELMIVNDHLMFKKHRLSVVHTNTYAKSVVNMADLIYKDQLKTRIVLVAMETWATDNKFAISENPLITLREFMKYRRDFIKEKSDAVHLFSGSQFESSRSGAAYIGGICSLLKGGGVNEFGKTDLMAVTLAQSLAHNIGIISDKRKLASGECKCEDTWSGCIMGATGYYLPKKFTQCNIEEYHDFLNSGGGACLFNKPSKLLDPPECGNGFIETGEECDCGTPAECVLEGAECCKKCTLTQDSQCSDGLCCKKCKFQPMGTVCREAVNDCDIRETCSGNSSQCAPNIHKMDGYSCDGVQGICFGGRCKTRDRQCKYIWGQKVTASDKYCYEKLNIEGTEKGNCGKDKDTWIQCNKRDVLCGYLLCTNIGNIPRLGELDGEITSTLVVQQGRTLNCSGGHVKLEEDVDLGYVEDGTPCGPQMMCLEHRCLPVASFNFSTCLSSKEGTICSGNGVCSNELKCVCNRHWIGSDCNTYFPHNDDAKTGITLSG [chain 1 D183A] | 37 % of WT
2 | chain 1 SKRQLRRYPRNVEEETKYIELMIVNDHLMFKKHRLSVVHTNTYAKSVVNMADLIYKDQLKTRIVLVAMETWATDNKFAISENPLITLREFMKYRRDFIKEKSDAVHLFSGSQFESSRSGAAYIGGICSLLKGGGVNEFGKTDLMAVTLAQSLAHNIGIISDKRKLASGECKCEDTWSGCIMGDTGAYLPKKFTQCNIEEYHDFLNSGGGACLFNKPSKLLDPPECGNGFIETGEECDCGTPAECVLEGAECCKKCTLTQDSQCSDGLCCKKCKFQPMGTVCREAVNDCDIRETCSGNSSQCAPNIHKMDGYSCDGVQGICFGGRCKTRDRQCKYIWGQKVTASDKYCYEKLNIEGTEKGNCGKDKDTWIQCNKRDVLCGYLLCTNIGNIPRLGELDGEITSTLVVQQGRTLNCSGGHVKLEEDVDLGYVEDGTPCGPQMMCLEHRCLPVASFNFSTCLSSKEGTICSGNGVCSNELKCVCNRHWIGSDCNTYFPHNDDAKTGITLSG [chain 1 Y186A] | 4 % of WT
